Test results: patent US12415833B2, “Method for activating helper T cell” (International Institute of Cancer Immunology, Inc., priority 2010, dated 2025)
No end group written: not given here.

Key:
Assay in all cases: Folding test of HLA class II monomer protein with peptide using HPLC
Type in all cases: binding
Conditions in all cases: 50-fold molar peptide, 37° C. overnight, compared with control (solvent only), folding criterion not less than 0.1 minute
[1] = target: HLA class II monomer protein DRB1*0901 (Homo sapiens, UniProt P01903+P01911, A100R/A103E/D57H/D86V/F55Y/F60I/F76Y/I96F/K127E/L162R/M171V/P40D/Q125H/Q99R/R33Q/R42F/S133A/S66N/T210M/V115G/W38K/Y107V/Y59G/Y89S)
Method: (§1) Next, in order to evaluate a binding ability of WT1-332 with MHC class II molecules, a folding test of 7 types of HLA class II monomer proteins (DRB1*1501, 0101, 0405, 0803, 0901, 1502, or DRB4*0101) with WT1-332 was carried out using HPLC. Briefly, a folding reaction solution was prepared by mixing an HLA class II monomer protein, a peptide [a peptide binding to each protein (positive control), a peptide not binding to each protein (negative control), and WT1-332], and a folding buffer. After reacting the solution at 37° C., the retention time was analyzed using HPLC. The folding with WT1-332 was evaluated by utilizing a shift of the retention time due to the binding of an HLA class II monomer protein with a peptide.
(§2) HLA class II monomer proteins which had been freeze-preserved at −80° C. were thawed on ice. The HLA class II monomer proteins thawed were adjusted using a dilution buffer so that they were contained in an amount of 0.05 mg (1×10−^9 mol) in 83 μL.
(§3) About 1 mg of each peptide was weighed by an electronic balance, transferred to a glass vial, and dissolved in DMSO to give a concentration of 20 mg/mL.
(§4) The amount of a peptide which is a 50-fold molar amount relative to an HLA class II monomer protein was calculated using the following calculation formula. Amount of peptide required: 1×10^−9 mol×50=5×10^−8 mol (amount of peptide required) […]×(Molecular weight of peptide)×1,000=(amount of peptide required)(mg) (Amount of peptide required)/[purity of peptide/100]=(amount of peptide added)(mg) [(Amount of peptide added)/20 mg/mL]×1,000=(amount of peptide solution added)(μL) Calculation of Amount of Folding Buffer Added
(§5) As a folding buffer, a 10% amount of a mixed solution of an HLA class II monomer protein and a peptide was added. The amount of the folding buffer added was calculated using the following calculation equation. [83 μL (Amount of HLA class II monomer protein)+(amount of peptide solution in 50-fold molar amount)]×0.1=amount of folding buffer added Analysis of Folding Using HPLC
(§6) To a glass vial charged with an HLA class II monomer protein, a peptide solution and a folding buffer were added in a calculated amount, and the mixture was allowed to stand at 37° C. overnight. HPLC (Waters 2695 Separation Module) was started, and a Seperdex 200 column was equilibrated with an equilibrating buffer. To all samples, 300 μL of the equilibrate buffer was added and well mixed, and a 100 μL portion of the mixture was used as a sample injection volume to calculate the retention time. Analysis time was 50 minutes. The criterion for the folding of an HLA class II monomer protein with a peptide is a shift of the retention time of not less than 0.1 minute as compared with a control (solvent only).

[2] = target: HLA class II monomer protein DRB1*1502 (Homo sapiens, UniProt P01903+P01911, V115G)
Method: as §1, §2, §3, §4, §5, §6

[3] = target: HLA class II monomer protein DRB1*0803 (Homo sapiens, UniProt P01903+P01911, A100R/A103L/A169T/D86S/F76Y/H45Y/K41T/L162R/M171V/P40S/Q125H/Q178H/Q39Y/Q99D/R218S/R42G/S66Y/V115G/W38E)
Method: as §1, §2, §3, §4, §5, §6

[4] = target: HLA class II monomer protein DRB1*0101 (Homo sapiens, UniProt P01903+P01911, A100R/D57E/F55L/F60I/F76Y/I96L/L162R/M171V/P40L/Q125E/R42F/V115G/Y59C)
Method: as §1, §2, §3, §4, §5, §6

[5] = target: HLA class II monomer protein DRB1*1501 (Homo sapiens, UniProt P01903+P01911)
Method: as §1, §2, §3, §4, §5, §6

[6] = target: HLA class II monomer protein DRB1*0405 (Homo sapiens, UniProt P01903+P01911, A100R/A169T/D86S/F76Y/I96L/K127E/L162R/M171V/N62H/P40V/Q125Y/R42H/S133A/S149N/S66Y/V115G/V209L/W38E)
Method: as §1, §2, §3, §4, §5, §6

[7] = target: HLA class II monomer protein DRB4*0101 (Homo sapiens, UniProt P01903+P13762, G164S)
Method: as §1, §2, §3, §4, §5, §6

Measured: degree of shift of the retention time

Sequence of HLA class II monomer protein DRB1*1502 (P01903 26-254, other chains not shown): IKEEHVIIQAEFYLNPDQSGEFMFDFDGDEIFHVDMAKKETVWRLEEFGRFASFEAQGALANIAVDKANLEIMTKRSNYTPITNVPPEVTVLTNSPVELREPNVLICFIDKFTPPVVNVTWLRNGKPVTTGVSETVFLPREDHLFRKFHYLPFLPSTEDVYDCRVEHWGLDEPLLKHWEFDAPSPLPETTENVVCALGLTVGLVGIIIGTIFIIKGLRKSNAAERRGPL

KRYFKLSHLQMHSRKH [WT1-332]
not less than 0.1 minute: all assays above
